Measured values as given in publication PMC7539366 (Cell host & microbe, 2020).

Experiments:
[1] = molecular target: CVA16 mature virion (strain CVA16/190) (coxsackievirus A16 (strain CVA16/190))
[2] = molecular target: T1, CVA16 A-particle (strain CVA16/190) (Coxsackievirus A16, strain CVA16/190 …, strain); test: cryo-EM structure
T1 chain 1: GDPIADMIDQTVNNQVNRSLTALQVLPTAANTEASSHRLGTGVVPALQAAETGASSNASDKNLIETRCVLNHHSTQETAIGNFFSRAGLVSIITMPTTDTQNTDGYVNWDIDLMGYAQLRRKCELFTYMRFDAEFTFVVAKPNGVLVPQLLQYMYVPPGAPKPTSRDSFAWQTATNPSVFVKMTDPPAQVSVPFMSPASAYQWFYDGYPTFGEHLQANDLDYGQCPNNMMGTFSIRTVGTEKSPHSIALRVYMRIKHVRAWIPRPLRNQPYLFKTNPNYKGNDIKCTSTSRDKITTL
T1 chain 2: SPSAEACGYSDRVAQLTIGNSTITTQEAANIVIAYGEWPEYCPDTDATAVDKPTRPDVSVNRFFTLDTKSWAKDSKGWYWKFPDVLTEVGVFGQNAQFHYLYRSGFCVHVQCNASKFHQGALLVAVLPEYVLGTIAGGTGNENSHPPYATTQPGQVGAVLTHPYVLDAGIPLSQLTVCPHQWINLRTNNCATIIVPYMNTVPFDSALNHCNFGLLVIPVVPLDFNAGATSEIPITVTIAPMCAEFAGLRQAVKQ
T1 chain 3: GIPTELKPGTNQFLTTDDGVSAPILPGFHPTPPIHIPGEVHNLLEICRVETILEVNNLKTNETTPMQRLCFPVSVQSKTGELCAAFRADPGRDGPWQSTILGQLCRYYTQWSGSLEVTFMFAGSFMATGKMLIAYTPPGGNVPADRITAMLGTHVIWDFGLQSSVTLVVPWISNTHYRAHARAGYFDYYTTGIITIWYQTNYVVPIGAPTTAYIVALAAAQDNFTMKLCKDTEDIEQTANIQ

[3] = molecular target: T2, CVA16 empty particle (strain CVA16/190) (Coxsackievirus A16, strain CVA16/190 …, strain); test: cryo-EM structure
T2 chain 1: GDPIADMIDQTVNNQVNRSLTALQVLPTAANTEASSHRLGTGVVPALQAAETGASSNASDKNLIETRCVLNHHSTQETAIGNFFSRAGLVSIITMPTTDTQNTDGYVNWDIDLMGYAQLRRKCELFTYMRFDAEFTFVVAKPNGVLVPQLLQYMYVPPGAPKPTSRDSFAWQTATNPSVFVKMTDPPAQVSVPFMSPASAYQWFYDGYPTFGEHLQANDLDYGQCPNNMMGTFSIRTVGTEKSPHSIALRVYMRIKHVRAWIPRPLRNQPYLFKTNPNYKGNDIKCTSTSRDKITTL
T2 chain 2: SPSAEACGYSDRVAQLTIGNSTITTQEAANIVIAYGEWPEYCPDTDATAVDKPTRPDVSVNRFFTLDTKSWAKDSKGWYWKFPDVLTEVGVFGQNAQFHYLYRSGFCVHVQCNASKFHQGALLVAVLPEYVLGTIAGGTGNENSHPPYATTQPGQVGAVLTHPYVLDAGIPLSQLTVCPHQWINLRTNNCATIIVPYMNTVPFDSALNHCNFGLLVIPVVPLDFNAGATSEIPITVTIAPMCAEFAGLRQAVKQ
T2 chain 3: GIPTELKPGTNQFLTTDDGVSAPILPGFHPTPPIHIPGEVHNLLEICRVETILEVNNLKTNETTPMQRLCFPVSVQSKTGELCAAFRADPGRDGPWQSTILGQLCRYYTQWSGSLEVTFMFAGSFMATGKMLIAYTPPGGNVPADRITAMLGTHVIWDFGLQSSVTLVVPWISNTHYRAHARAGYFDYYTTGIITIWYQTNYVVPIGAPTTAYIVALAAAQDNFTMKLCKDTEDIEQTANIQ

[4] = molecular target: T2, CVA16 empty particle (strain CVA16/190); test: ELISA
[5] = molecular target: T3, CVA16 mature virion (strain CVA16/190) (Coxsackievirus A16, strain CVA16/190 …, strain); test: cryo-EM structure
T3 chain 1: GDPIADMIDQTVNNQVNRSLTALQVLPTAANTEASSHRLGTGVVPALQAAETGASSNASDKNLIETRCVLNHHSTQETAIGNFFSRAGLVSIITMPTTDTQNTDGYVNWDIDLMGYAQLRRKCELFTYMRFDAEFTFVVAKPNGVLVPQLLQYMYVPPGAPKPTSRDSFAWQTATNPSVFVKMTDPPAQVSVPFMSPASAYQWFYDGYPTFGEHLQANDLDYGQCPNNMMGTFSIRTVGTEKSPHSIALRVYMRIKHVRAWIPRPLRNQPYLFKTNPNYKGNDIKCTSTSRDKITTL
T3 chain 2: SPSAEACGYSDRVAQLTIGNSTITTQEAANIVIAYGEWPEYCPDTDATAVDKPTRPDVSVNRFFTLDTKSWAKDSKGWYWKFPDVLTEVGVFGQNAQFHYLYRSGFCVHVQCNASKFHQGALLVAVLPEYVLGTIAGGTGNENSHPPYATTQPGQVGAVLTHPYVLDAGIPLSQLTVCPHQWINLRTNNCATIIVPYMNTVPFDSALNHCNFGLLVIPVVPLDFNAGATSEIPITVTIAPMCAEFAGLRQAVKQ
T3 chain 3: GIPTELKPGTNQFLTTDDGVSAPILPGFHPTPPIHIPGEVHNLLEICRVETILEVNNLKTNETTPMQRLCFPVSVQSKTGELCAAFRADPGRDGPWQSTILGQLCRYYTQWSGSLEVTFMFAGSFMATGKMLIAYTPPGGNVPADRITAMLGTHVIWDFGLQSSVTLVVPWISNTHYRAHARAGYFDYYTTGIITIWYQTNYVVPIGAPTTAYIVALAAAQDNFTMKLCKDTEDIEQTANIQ
T3 chain 4: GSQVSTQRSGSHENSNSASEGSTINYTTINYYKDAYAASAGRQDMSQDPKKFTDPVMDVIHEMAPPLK

B1: Mouse Monoclonal Antibody-18A7 (antibody, V domains shown)
VH: EVQLQQSGPELVKPGASVKMSCKASGYTFTDYYMKWVKQSHGKSLEWIGDINPYNGDSFNNQKFKGKATLTVDTSSSTAYMQLNSLTSEDSAVYYCAIPYDYDEGWFAYWGQGTLVTVSA
VL: DIVMSQSPSSLAVSVGEKVTMSCKSSQSLLYSNNQKNYLAWYQQKPGQSPQLLIYWASTRESGVPDRFTGSESGTDFTLTISSVKAEDLAVFYCQQYYNYPWTFGGGTKLEIK
Work on B1 yielded an IC50 of neutralisation of CVA16/190 in RD cells (micro-neutralization, Elispot) [1] of 0.04 µg/mL.

B2: 18A7 Fab fragment (Fab, V domains shown)
VH: EVQLQQSGPELVKPGASVKMSCKASGYTFTDYYMKWVKQSHGKSLEWIGDINPYNGDSFNNQKFKGKATLTVDTSSSTAYMQLNSLTSEDSAVYYCAIPYDYDEGWFAYWGQGTLVTVSA
VL: DIVMSQSPSSLAVSVGEKVTMSCKSSQSLLYSNNQKNYLAWYQQKPGQSPQLLIYWASTRESGVPDRFTGSESGTDFTLTISSVKAEDLAVFYCQQYYNYPWTFGGGTKLEIK
B2 was tested, and the “stoichiometry N” value [2] was 12 Fabs per viral particle and the “stoichiometry N” value [3] was 12 Fabs per viral particle.

B3: Mouse Monoclonal Antibody-14B10 (antibody, V domains shown)
VH: QVQLQQSGPELVKPGASVKISCKASGYEFSRSWMNWVKQRPGQGLEWIGRIYPGDGDTNYNGKFRDKATLTADKSSSTAYMQLSRLTSVDSAVYFCARRRGYFDVWGAGTTVTVS
VL: DIQMTQSSSYLSVSLGGRVTITCKASDHINNWLAWYQQKPGNAPRLLISGATSLETGIPSRFSGSGSGKDYTLSITSLQTEDVGTYYCQQYWSTPTFGGGTKLEIK
In the case of B3, the IC50 of neutralisation of CVA16/190 in RD cells (micro-neutralization, Elispot) [1] is reported as 1.01 µg/mL and the binding result [4] is reported as “no binding”.

B4: 14B10 Fab fragment (Fab, V domains shown)
VH: QVQLQQSGPELVKPGASVKISCKASGYEFSRSWMNWVKQRPGQGLEWIGRIYPGDGDTNYNGKFRDKATLTADKSSSTAYMQLSRLTSVDSAVYFCARRRGYFDVWGAGTTVTVS
VL: DIQMTQSSSYLSVSLGGRVTITCKASDHINNWLAWYQQKPGNAPRLLISGATSLETGIPSRFSGSGSGKDYTLSITSLQTEDVGTYYCQQYWSTPTFGGGTKLEIK
B4 was tested, and the “stoichiometry N” value [5] was ≤ 60 Fabs per mature virion.

B5: Mouse Monoclonal Antibody-NA9D7 (antibody, V domains shown)
VH: EVQLQQSGPELVKPGASVKMSCKASGYTFTDYYMKWVKQSHGKSLEWIGDINPNNGATSYNQKFKGKATLTVDKSSSTAYMQLNSLTSEDSAVYYCARRGYGLYYAMDYWGQGTSVTVSS
VL: EIVLTQSPTTMAASPGEKITITCSASSSISSNYLHWYQQKPGFSPKLLIYRTSNLASGVPARFSGSGSGTSYSLTIGTMEAEDVATYYCQQGSSIPHTFGGGTKLEIK
With B5 the IC50 of neutralisation of CVA16/190 in RD cells (micro-neutralization, Elispot) [1] was 1.96 µg/mL and the binding result [4] was “no binding”.

B6: NA9D7 Fab fragment (Fab, V domains shown)
VH: EVQLQQSGPELVKPGASVKMSCKASGYTFTDYYMKWVKQSHGKSLEWIGDINPNNGATSYNQKFKGKATLTVDKSSSTAYMQLNSLTSEDSAVYYCARRGYGLYYAMDYWGQGTSVTVSS
VL: EIVLTQSPTTMAASPGEKITITCSASSSISSNYLHWYQQKPGFSPKLLIYRTSNLASGVPARFSGSGSGTSYSLTIGTMEAEDVATYYCQQGSSIPHTFGGGTKLEIK
In the case of B6, the “stoichiometry N” value [5] is reported as ≤ 60 Fabs per mature virion.
